Measured values as given in publication PMC4408115.

Molecular target: SPbCZ5: leucine zipper-GGSG-LucY (from A235)-…-Avi-tag (Geobacillus species)
Assay: split reporter (BiFC, NanoBiT); LucY protein-fragment complementation: LucY fragments fused to antiparallel leucine zippers, co-expressed in E. cloni 10G (E. coli), 16-18 h at 37°C; whole-cell fluorescence in PBS (excitation 485 nm, emission 528 nm) as percent of CZ (zipper fused to whole LucY)

SPbNZ5: His6-LucY (to H234)-GGSGSS-leucine zipper
fluorescence, percent of CZ control (% of CZ control): 33
